Stoichiometry N data for one substance are collected here from publication doi:10.64898/2025.12.30.697104.

Like-named read-outs stand apart in the source and are kept apart here.

The target of assay [1] is Trichoplusia ni (Tni) beta-tubulin (Trichoplusia ni (endogenous in Tni cells)). Briefly: cryo-EM structure.
Assay [2] shares this target. Briefly: cryo-EM structure. This is another data set of the same source.

The stoichiometry N is a count of units in the complex or per binding partner. “Trichoplusia ni (Tni) beta-tubulin (natural protein)”: the stoichiometry N in assay [1] and in assay [2] was 2 each time.
